What was measured:
OCT4 [1] = target: T1, OCT4 (human, UniProt Q01860 1-360); experiment: EMSA; mono- and di-OCT4 complexes; 20 fmol probe; Panomics EMSA Gel Shift Kit per manufacturer; OCT4 0.5 mg as printed (likely ug), biotin probe 20 fmol; buffer, pH and temperature not stated; settings: protein: commercial; label: biotin at 5' end
OCT4 [2] = target: T1, OCT4; experiment: EMSA; mono-OCT4 complex; 20 fmol probe; Panomics EMSA Gel Shift Kit per manufacturer; OCT4 0.5 mg as printed (likely ug), biotin probe 20 fmol; buffer, pH and temperature not stated; settings: protein: commercial; label: biotin at 5' end

T1 sequence (Q01860 whole entry): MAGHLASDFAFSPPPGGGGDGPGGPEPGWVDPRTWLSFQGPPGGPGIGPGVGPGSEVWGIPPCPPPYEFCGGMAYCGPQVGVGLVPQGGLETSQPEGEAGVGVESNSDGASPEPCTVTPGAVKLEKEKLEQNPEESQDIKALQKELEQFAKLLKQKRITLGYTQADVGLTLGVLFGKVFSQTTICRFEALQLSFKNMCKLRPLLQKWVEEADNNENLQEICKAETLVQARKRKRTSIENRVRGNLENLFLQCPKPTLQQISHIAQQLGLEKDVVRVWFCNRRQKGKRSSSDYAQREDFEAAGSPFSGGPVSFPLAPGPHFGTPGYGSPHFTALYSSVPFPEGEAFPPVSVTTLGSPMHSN

| Binder | binding result (OCT4 [1]) | binding result (OCT4 [2]) |
| --- | --- | --- |
| Biotin-MYC-1209/-1140 WT (OBS1+OBS2) (dsDNA) DNA 1: CTGTGCATACATAATGCATAATACATGACTCCCCCCAACAAATGCAATGGGAGTTTATTCATAACGCGCT DNA 2: AGCGCGTTATGAATAAACTCCCATTGCATTTGTTGGGGGGAGTCATGTATTATGCATTATGTATGCACAG | binds | – |
| Biotin-MYC-1173/-1145 WT (OBS2) (dsDNA) DNA 1: ACAAATGCAATGGGAGTTTATTCATAAC DNA 2: GTTATGAATAAACTCCCATTGCATTTGT | – | binds |
| Biotin-MYC-1209/-1166 WT (OBS1) (dsDNA) DNA 1: CTGTGCATACATAATGCATAATACATGACTCCCCCCAACAAATGC DNA 2: GCATTTGTTGGGGGGAGTCATGTATTATGCATTATGTATGCACAG | binds | – |

— publication PMC7224192, “MYC transcription activation mediated by OCT4 as a mechanism of resistance to 13-cisRA-mediated differentiation in neuroblastoma”
